Measured values: publication PMC6098113, “A 2′FY-RNA Motif Defines an Aptamer for Ebolavirus Secreted Protein”
Read-outs that look alike come from different tables or passages of the source.

Tests used:
[1] = biological target: T1, EBOV sGP (soluble glycoprotein) (Zaire ebolavirus (EBOV), UniProt P60170 33-324); assay: filter binding; settings: protein: recombinant, tags: 6xHis, chain copies: 2
[2] = biological target: T1, EBOV sGP (soluble glycoprotein); assay: filter binding; monomer basis; settings: protein: recombinant; tags: 6xHis; chain copies: 2; label: 32P; hairpins (Mfold)
[3] = biological target: T1, EBOV sGP (soluble glycoprotein); assay: filter binding; up to 800 nM sGP; settings: protein: recombinant; tags: 6xHis; chain copies: 2; label: 32P; hairpins (Mfold)
[4] = biological target: Human serum albumin (Homo sapiens (Human), UniProt P02768 25-609); assay: filter; PBS + 5 mM MgCl2 pH 7.4; settings: label: 32P
[5] = biological target: T2, SUDV sGP (Sudan virus (SUDV), UniProt Q7T9E0 33-324); assay: filter binding; monomer basis; settings: protein: commercial; chain copies: 2; label: 32P; hairpin
T2 sequence: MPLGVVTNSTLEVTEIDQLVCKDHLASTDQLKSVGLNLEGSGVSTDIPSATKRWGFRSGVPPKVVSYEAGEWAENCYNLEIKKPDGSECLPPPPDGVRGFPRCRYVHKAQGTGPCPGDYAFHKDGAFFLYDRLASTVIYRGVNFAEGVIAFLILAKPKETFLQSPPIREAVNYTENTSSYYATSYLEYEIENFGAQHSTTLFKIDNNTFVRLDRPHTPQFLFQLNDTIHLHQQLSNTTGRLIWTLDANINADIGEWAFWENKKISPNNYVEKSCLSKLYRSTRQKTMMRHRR

[6] = biological target: T3, alpha2-macroglobulin (UniProt P01023 24-1474); assay: filter binding; 205 nM to 5 uM alpha2-macroglobulin; Buffer A: 137 mM NaCl, 2.7 mM KCl, 10 mM Na2HPO4, 2 mM KH2PO4, 5 mM MgCl2, pH 7.4, RT (23-24 C), 30 min; settings: protein: commercial; label: 32P; hairpin
T3 sequence: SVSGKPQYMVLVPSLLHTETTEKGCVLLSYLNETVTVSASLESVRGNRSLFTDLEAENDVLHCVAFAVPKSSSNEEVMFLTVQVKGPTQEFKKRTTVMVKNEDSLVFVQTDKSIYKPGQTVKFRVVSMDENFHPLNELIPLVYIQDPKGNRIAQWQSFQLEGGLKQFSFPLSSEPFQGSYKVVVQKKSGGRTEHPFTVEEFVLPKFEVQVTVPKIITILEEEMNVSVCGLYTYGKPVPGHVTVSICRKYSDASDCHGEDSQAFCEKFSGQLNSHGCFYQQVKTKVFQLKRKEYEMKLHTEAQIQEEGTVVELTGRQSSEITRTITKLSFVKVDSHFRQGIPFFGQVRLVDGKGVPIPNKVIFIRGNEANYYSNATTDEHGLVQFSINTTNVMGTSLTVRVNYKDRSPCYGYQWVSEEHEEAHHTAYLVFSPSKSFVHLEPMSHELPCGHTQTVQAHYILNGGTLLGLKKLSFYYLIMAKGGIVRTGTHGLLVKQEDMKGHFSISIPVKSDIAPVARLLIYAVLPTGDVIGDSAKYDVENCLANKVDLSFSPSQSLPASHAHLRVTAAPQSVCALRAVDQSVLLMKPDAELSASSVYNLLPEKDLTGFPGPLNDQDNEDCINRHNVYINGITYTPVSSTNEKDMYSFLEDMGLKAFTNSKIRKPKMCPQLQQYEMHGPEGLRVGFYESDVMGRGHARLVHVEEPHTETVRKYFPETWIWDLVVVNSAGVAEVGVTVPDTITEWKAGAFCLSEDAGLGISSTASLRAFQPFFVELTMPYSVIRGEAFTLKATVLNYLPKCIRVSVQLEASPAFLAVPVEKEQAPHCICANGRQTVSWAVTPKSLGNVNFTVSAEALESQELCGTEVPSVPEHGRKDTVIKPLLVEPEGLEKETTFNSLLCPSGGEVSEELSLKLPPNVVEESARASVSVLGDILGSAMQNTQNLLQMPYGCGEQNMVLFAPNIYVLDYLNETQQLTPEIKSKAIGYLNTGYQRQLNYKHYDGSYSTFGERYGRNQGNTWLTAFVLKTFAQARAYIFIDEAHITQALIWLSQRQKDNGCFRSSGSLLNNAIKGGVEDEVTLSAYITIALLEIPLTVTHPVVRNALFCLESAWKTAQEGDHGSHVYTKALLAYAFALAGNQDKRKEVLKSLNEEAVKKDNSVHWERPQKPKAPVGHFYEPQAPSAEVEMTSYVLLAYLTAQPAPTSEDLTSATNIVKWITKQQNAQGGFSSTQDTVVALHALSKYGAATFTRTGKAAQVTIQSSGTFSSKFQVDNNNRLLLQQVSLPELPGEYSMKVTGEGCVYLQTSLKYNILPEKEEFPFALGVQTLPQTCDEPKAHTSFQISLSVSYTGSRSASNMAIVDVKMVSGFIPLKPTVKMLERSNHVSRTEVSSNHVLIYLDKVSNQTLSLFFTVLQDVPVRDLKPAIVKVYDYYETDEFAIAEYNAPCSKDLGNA

[7] = biological target: fibrinogen (UniProt P02671;P02675;P02679 20-866;31-491;27-453); assay: filter binding; 250 nM to 4 uM fibrinogen; Buffer A: 137 mM NaCl, 2.7 mM KCl, 10 mM Na2HPO4, 2 mM KH2PO4, 5 mM MgCl2, pH 7.4, RT (23-24 C), 30 min; settings: protein: commercial; chain copies: 2;2;2; label: 32P; hairpin
[8] = biological target: T1, EBOV sGP (soluble glycoprotein); assay: filter binding; monomer basis; Fig S8 legend uses 50 nM; settings: protein: recombinant; tags: 6xHis; chain copies: 2; label: 32P; hairpin
[9] = biological target: T1, EBOV sGP (soluble glycoprotein); assay: filter binding; 50 and 500 nM sGP; settings: protein: recombinant; tags: 6xHis; chain copies: 2; label: 32P; 3' stem loop of 5183
[10] = biological target: T1, EBOV sGP (soluble glycoprotein); assay: filter binding; 50 and 500 nM sGP; better than 5183; settings: protein: recombinant; tags: 6xHis; chain copies: 2; label: 32P; central bulge of 5183 removed
[11] = biological target: T1, EBOV sGP (soluble glycoprotein); settings: protein: recombinant; tags: 6xHis; chain copies: 2
[12] = biological target: T1, EBOV sGP (soluble glycoprotein); assay: competition; 100-fold excess competes with 39SGP1A; settings: protein: recombinant; tags: 6xHis; chain copies: 2; label: 32P (direct); hairpins (Mfold)

T1 sequence (P60170 33-324): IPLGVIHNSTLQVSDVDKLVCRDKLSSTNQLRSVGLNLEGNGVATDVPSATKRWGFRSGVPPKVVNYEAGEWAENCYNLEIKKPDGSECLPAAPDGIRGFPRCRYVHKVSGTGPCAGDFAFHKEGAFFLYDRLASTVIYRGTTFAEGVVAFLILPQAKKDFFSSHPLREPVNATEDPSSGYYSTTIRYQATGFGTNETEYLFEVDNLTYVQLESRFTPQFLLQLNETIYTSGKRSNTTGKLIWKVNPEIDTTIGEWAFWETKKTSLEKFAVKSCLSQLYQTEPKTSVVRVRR
Human serum albumin, sequence (P02768 25-609): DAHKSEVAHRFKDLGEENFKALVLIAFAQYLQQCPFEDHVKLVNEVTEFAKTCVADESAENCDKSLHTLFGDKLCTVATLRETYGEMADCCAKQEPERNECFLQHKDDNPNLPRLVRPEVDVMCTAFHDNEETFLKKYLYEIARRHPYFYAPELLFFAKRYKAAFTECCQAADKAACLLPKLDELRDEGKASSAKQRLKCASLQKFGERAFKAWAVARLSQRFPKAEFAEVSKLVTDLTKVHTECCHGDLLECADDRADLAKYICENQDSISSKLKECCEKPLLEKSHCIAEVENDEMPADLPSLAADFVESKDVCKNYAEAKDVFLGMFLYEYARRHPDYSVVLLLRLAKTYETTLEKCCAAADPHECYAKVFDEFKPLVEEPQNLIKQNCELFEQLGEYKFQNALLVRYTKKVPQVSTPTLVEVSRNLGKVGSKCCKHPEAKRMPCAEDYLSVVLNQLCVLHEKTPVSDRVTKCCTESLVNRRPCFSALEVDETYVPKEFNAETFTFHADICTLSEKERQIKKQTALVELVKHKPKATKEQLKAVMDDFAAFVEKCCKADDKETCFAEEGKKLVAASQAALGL
fibrinogen, sequence (P02671 20-866, chain 1 of 3): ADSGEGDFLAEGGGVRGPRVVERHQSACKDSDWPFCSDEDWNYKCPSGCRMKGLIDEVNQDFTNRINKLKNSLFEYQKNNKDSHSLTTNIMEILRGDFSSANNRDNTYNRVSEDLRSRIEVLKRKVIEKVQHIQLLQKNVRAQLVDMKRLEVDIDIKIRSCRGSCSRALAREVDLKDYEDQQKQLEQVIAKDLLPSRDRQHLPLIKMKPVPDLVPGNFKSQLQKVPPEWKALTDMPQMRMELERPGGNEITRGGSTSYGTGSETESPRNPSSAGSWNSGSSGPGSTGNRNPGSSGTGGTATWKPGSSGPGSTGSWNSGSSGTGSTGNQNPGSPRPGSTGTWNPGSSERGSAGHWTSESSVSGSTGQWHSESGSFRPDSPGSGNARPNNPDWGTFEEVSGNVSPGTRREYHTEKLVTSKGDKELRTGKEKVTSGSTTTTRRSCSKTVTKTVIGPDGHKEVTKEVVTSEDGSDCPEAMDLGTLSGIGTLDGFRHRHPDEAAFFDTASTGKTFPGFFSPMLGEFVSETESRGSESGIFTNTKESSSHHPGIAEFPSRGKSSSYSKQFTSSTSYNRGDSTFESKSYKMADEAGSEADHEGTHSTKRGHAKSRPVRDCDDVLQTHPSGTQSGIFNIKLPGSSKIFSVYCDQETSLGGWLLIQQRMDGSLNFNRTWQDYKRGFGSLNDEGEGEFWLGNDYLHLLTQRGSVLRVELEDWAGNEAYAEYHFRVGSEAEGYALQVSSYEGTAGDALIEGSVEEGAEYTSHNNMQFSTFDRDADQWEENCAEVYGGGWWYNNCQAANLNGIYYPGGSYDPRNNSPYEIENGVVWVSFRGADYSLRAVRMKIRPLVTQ
fibrinogen, sequence (P02675 31-491, chain 2 of 3): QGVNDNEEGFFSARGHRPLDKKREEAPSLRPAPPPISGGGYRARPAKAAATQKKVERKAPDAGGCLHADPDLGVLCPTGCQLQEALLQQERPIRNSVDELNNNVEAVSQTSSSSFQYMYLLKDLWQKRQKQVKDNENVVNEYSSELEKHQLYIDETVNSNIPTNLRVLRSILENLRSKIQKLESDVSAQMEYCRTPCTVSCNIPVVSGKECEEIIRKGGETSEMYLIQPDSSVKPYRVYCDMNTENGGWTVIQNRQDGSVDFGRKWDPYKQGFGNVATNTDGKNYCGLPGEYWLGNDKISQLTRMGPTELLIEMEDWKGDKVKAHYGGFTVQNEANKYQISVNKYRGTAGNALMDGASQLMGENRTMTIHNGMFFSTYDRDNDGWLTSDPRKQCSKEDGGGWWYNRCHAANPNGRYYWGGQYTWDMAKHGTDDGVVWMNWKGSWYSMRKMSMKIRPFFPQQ
fibrinogen, sequence (P02679 27-453, chain 3 of 3): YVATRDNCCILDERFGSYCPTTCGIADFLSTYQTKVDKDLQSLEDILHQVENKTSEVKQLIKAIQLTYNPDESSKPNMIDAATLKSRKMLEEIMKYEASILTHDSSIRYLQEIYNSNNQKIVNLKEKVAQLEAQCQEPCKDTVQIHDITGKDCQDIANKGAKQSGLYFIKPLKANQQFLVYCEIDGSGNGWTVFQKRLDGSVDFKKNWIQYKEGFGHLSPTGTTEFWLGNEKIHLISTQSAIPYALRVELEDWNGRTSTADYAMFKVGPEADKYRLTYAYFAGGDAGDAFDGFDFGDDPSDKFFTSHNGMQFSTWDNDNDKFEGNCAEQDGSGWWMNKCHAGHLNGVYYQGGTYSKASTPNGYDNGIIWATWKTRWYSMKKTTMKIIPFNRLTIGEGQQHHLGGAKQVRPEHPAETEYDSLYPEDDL

B1: 5189 2'FY-RNA (XNA)
RNA: GGGAGACAAGAAUAAACGCUCAAUUUUUUAUUGCAUUUUUCUUUGAGCGUCAUUGAUACCCUGUUUCCU
modifications: 2'-F on all C and U
[1]; label: 32P
  binding result: binds

B2: 5182 2'FY-RNA (XNA)
RNA: GGGAGACAAGAAUAAACGCUCAAGUCUUUAUUUUUACACUUUUAUUUUACCUUGAGCUUCUUGACCAACAGUGCGCUUCGACAGGAGGCUCACAACAGGC
modifications: 2'-F on all C and U
[1]; label: 32P
  Kd: < 100 nM

B3: 5183 2'FY-RNA (XNA)
RNA: GGGAGACAAGAAUAAACGCUCAAUUUUUUAUUGCAUUUUUCUUUGAGCGUCAUUGAUACCCUGUUUCCUUGAGCACUUCGACAGGAGGCUCACAACAGGC
modifications: 2'-F on all C and U; 2'-OH A and G
[2]
  Kd: 54 nM

B4: 2'FC-5183 (XNA)
RNA: GGGAGACAAGAAUAAACGCUCAAUUUUUUAUUGCAUUUUUCUUUGAGCGUCAUUGAUACCCUGUUUCCUUGAGCACUUCGACAGGAGGCUCACAACAGGC
modifications: 2'-F on C only; U is 2'-OH
[3]
  binding result: no binding

B5: 5183 (ssRNA)
RNA: GGGAGACAAGAAUAAACGCUCAAUUUUUUAUUGCAUUUUUCUUUGAGCGUCAUUGAUACCCUGUUUCCUUGAGCACUUCGACAGGAGGCUCACAACAGGC
modifications: 2'-F pyrimidines
[4]
  Kd: 400 nM

B6: 5183 2'OH RNA (structured_RNA)
RNA: GGGAGACAAGAAUAAACGCUCAAUUUUUUAUUGCAUUUUUCUUUGAGCGUCAUUGAUACCCUGUUUCCUUGAGCACUUCGACAGGAGGCUCACAACAGGC
modifications: none (2'-OH)
[1]; label: 32P, hairpins (Mfold)
  binding result: no binding

## GGGCGCUCAAUUUUUUAUUGCAUUUUUCUUUGAGCGCCC (XNA, 2'-F on all C and U) [39SGP1A (5199) 2'FY-RNA]
[5]
  Kd: 240 nM
[6]
  binding result: no binding
[7]
  binding result: no binding
[8]
  Kd: 27 nM

## GGGCGCUCAAUUUUUUAUUGCAUUUUUCUUUGAGCGCCC (ssRNA, 2'-F pyrimidines) [39SGP1A (5199)]
[4]
  Kd: > 68000 nM

B7: 5193 2'FY-RNA (XNA)
RNA: GGGAGACAAGAAUGAUACCCUGUUUCCUUGAGCUAUUCGACAGGAGGCUCACAACAGGC
modifications: 2'-F on all C and U
[9]
  binding result: no binding

B8: 5192 2'FY-RNA (XNA)
RNA: GGGAGACAUAAACGCUCAAUUUUUUAUUGCAUUUUUCUUUGAGCGUCAUUGUGUUUCCUUGAGCACUUCGACAGGAGGCUCACAACAGGC
modifications: 2'-F on all C and U
[10]
  binding result: binds

B9: 4797 2'FY-RNA (XNA)
RNA: GGGAGACAAGAAUAAACGCUCAAAGCAACACAACGAGAUUAAACAAUCUAUUGUUAACAUUAAACAACUAGGCCGAUUCGACAGGAGGCUCACAACAGGC
modifications: 2'-F on all C and U
[11]
  Kd: ~500 nM

B10: 4789 2'FY-RNA (XNA)
RNA: GGGAGACAAGAAUAAACGCUCAAACGUAAUGCAGUCUGUGAGCUUCAGCAAGUAAAAUUAGCGCUGACCGACCCUGUUCGACAGGAGGCUCACAACAGGC
modifications: 2'-F on all C and U
[12]
  binding result: binds

B11: 5179 2'FY-RNA (XNA)
RNA: GGGAGACAAGAAUAAACGCUCAAUCUUUUUAUUUUACUUUUUGUUGUAGAGCGCUUGUUUCUCUGAGUUGUAGCCAUUCGACAGGAGGCUCACAACAGGC
modifications: 2'-F on all C and U
[1]; label: 32P (direct)
  Kd: < 100 nM
